Experimental data taken from patent US10745460B2, “Peptides and combination of peptides for use in immunotherapy against various tumors” (Immatics Biotechnologies GmbH, priority 2015, dated 2020).

Target: HLA-A*02:01 (Homo sapiens, UniProt P04439, D140Y/D185E/D98H/E176V/E277Q/G131W/G231S/I119V/I121R/I166T/I218V/L300P/L318F/N151K/N90K/P208A/P217A/Q86G/Q94H/R138H/R169H/T345S)
Test: MHC binding assay: UV-ligand exchange with β2m ELISA (peptide exchange yield)
Settings: binding to HLA-A*02:01 evaluated by peptide exchange yield (UV-ligand exchange, β2m ELISA)
Procedure, shortened: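 UV-cleavable peptide in HLA monomers exchanged for test peptide by UV irradiation; exchange yield measured by streptavidin-capture ELISA with HRP anti-β2m (TMB, 450 nm) on 100-fold diluted complexes. Quantified against refolded HLA-A*02:01/MLA-001 standards (15-500 ng/ml).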

Substance | Peptide exchange
250 (LMQDSRLYL; listed as Homo sapiens) [compound 250] | +++ (≥50 = +++)
88 (LLLPLELSLA; listed as Homo sapiens) [compound 88] | +++ (≥50 = +++)
243 (GLAEFQENV; listed as Homo sapiens) [compound 243] | ++ (≥20% = ++)
81 (ILAEEPIYI; listed as Homo sapiens) [compound 81] | ++ (≥20% = ++)
187 (SILKEDPFL; listed as Homo sapiens) [compound 187] | ++ (≥20% = ++)
277 (KLQEELNKV; listed as Homo sapiens) [compound 277] | +++ (≥50 = +++)
60 (YLFSQGLQGL; listed as Homo sapiens) [compound 60] | +++ (≥50 = +++)
128 (SILTNISEV; listed as Homo sapiens) [compound 128] | ++ (≥20% = ++)
82 (ILAEEPIYIRV; listed as Homo sapiens) [compound 82] | +++ (≥50 = +++)
212 (MTLSEIHAV; listed as Homo sapiens) [compound 212] | ++ (≥20% = ++)
175 (SLLDLVQSL; listed as Homo sapiens) [compound 175] | +++ (≥50 = +++)
101 (SLLEVNEASSV; listed as Homo sapiens) [compound 101] | +++ (≥50 = +++)
63 (KLLPMVIQL; listed as Homo sapiens) [compound 63] | +++ (≥50 = +++)
34 (TLNTLDINL; listed as Homo sapiens) [compound 34] | +++ (≥50 = +++)
92 (RLFEEVLGV; listed as Homo sapiens) [compound 92] | ++++ (≥75% = ++++)
19 (KVFELDLVTL; listed as Homo sapiens) [compound 19] | ++ (≥20% = ++)
39 (YLEDGFAYV; listed as Homo sapiens) [compound 39] | +++ (≥50 = +++)
228 (SLLELDGINLRL; listed as Homo sapiens) [compound 228] | +++ (≥50 = +++)
269 (GLLDCPIFL; listed as Homo sapiens) [compound 269] | ++++ (≥75% = ++++)
153 (KLVELEHTL; listed as Homo sapiens) [compound 153] | +++ (≥50 = +++)

Substance | Peptide exchange
176 (VQSGLRILL; listed as Homo sapiens) [compound 176] | ++ (≥20% = ++)
3 (RVIDDSLVVGV; listed as Homo sapiens) [compound 3] | +++ (≥50 = +++)
235 (SLLNQPKAV; listed as Homo sapiens) [compound 235] | ++ (≥20% = ++)
125 (AALEVLAEV; listed as Homo sapiens) [compound 125] | +++ (≥50 = +++)
238 (HLQEKLQSL; listed as Homo sapiens) [compound 238] | ++ (≥20% = ++)
246 (ALAGIVTNV; listed as Homo sapiens) [compound 246] | +++ (≥50 = +++)
38 (VLQQESNFL; listed as Homo sapiens) [compound 38] | ++ (≥20% = ++)
273 (SLNKQIETV; listed as Homo sapiens) [compound 273] | ++ (≥20% = ++)
225 (FLPQPVPLSV; listed as Homo sapiens) [compound 225] | +++ (≥50 = +++)
217 (LLWPSSVPA; listed as Homo sapiens) [compound 217] | +++ (≥50 = +++)
115 (ILHGEVNKV; listed as Homo sapiens) [compound 115] | ++ (≥20% = ++)
257 (KLIDHQGLYL; listed as Homo sapiens) [compound 257] | +++ (≥50 = +++)
188 (VLGEEQEGV; listed as Homo sapiens) [compound 188] | ++ (≥20% = ++)
51 (LDSEALLTL; listed as Homo sapiens) [compound 51] | ++ (≥20% = ++)
1 (KLQEKIQEL; listed as Homo sapiens) [compound 1] | ++++ (≥75% = ++++)
252 (SLMEKNQSL; listed as Homo sapiens) [compound 252] | ++ (≥20% = ++)
244 (NVAEIVIHI; listed as Homo sapiens) [compound 244] | +++ (≥50 = +++)
57 (TLYPGRFDYV; listed as Homo sapiens) [compound 57] | ++ (≥20% = ++)
181 (LLWAPTAQA; listed as Homo sapiens) [compound 181] | +++ (≥50 = +++)
53 (AQHLSTLLL; listed as Homo sapiens) [compound 53] | + (≥10% = +)

Substance | Peptide exchange
83 (GLLENSPHL; listed as Homo sapiens) [compound 83] | ++ (≥20% = ++)
260 (ALNESLVEC; listed as Homo sapiens) [compound 260] | +++ (≥50 = +++)
223 (ALHPVQFYL; listed as Homo sapiens) [compound 223] | +++ (≥50 = +++)
126 (QLREAFEQL; listed as Homo sapiens) [compound 126] | +++ (≥50 = +++)
72 (VLSTRVTNV; listed as Homo sapiens) [compound 72] | ++ (≥20% = ++)
71 (HMSGKLTNV; listed as Homo sapiens) [compound 71] | ++ (≥20% = ++)
116 (ALLSSVAEA; listed as Homo sapiens) [compound 116] | ++ (≥20% = ++)
199 (SVADLAHVL; listed as Homo sapiens) [compound 199] | ++ (≥20% = ++)
159 (QLGPVPVTI; listed as Homo sapiens) [compound 159] | +++ (≥50 = +++)
140 (FLDSQITTV; listed as Homo sapiens) [compound 140] | +++ (≥50 = +++)
194 (KLLEEVQLL; listed as Homo sapiens) [compound 194] | ++ (≥20% = ++)
203 (FLFVDPELV; listed as Homo sapiens) [compound 203] | ++ (≥20% = ++)
262 (LLLEAVWHL; listed as Homo sapiens) [compound 262] | +++ (≥50 = +++)
27 (GLLGKVTSV; listed as Homo sapiens) [compound 27] | +++ (≥50 = +++)
160 (TLQEWLTEV; listed as Homo sapiens) [compound 160] | +++ (≥50 = +++)
255 (FLMKNSDLYGA; listed as Homo sapiens) [compound 255] | +++ (≥50 = +++)
283 (ALSELLQQV; listed as Homo sapiens) [compound 283] | +++ (≥50 = +++)
67 (FLIENLLAA; listed as Homo sapiens) [compound 67] | +++ (≥50 = +++)
215 (QIADIVTSV; listed as Homo sapiens) [compound 215] | ++ (≥20% = ++)
224 (LLFDWSGTGRADA; listed as Homo sapiens) [compound 224] | +++ (≥50 = +++)
